Numbering of substitutions follows the chain as printed.
T1: human CD19 (full length, expressed on cells) (human, UniProt P15391 20-556)
T1 construct: whole, on cells; The functional assays used K562 cells transduced to express CD19; also called hsCD19; hCD19
T1 sequence (looked up): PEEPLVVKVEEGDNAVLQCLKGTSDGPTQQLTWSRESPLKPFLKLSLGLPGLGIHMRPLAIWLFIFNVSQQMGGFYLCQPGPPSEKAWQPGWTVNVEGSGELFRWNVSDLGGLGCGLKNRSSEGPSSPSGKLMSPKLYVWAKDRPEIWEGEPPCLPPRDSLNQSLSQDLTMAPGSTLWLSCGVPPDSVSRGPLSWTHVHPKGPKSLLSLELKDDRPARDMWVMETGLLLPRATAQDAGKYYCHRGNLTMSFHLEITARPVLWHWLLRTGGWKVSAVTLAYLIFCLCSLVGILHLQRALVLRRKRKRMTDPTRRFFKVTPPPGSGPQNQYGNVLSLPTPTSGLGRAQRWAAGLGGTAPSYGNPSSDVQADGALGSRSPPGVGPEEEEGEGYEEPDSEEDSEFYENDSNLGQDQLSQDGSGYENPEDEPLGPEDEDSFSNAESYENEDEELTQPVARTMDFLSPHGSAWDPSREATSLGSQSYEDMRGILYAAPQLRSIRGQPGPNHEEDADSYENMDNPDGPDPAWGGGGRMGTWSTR

B1: 103104 CAR 3 Soluble scFv (scFv)
scFv: QVQLQESGPGLVKPSETLSLTCTVSGVSLPDYGVSWIRQPPGKGLEWIGVIWGSETTYYSSSLKSRVTISKDNSKNQVSLKLSSVTAADTAVYYCAKHYYYGGSYAMDYWGQGTLVTVSSGGGGSGGGGSGGGGSEIVMTQSPATLSLSPGERATLSCRASQDISKYLNWYQQKPGQAPRLLIYHTSRLHSGIPARFSGSGSGTDYTLTISSLQPEDFAVYFCQQGNTLPYTFGQGTKLEIKHHHHHHHH
notes: also called CAR3 scFv; humanized scFv
B2: 103106 CAR4 Soluble scFv (scFv)
scFv: B1 scFv with S60Q
notes: also called CAR4 scFv; humanized scFv
B3: 103104 CAR12 Soluble scFv (scFv)
scFv: B1 scFv with S60N
notes: The clone number 103104 is printed for both CAR3 and CAR12; also called CAR12 scFv; humanized scFv
B4: 99789 CAR5 Soluble scFv (scFv)
scFv: EIVMTQSPATLSLSPGERATLSCRASQDISKYLNWYQQKPGQAPRLLIYHTSRLHSGIPARFSGSGSGTDYTLTISSLQPEDFAVYFCQQGNTLPYTFGQGTKLEIKGGGGSGGGGSGGGGSGGGGSQVQLQESGPGLVKPSETLSLTCTVSGVSLPDYGVSWIRQPPGKGLEWIGVIWGSETTYYSSSLKSRVTISKDNSKNQVSLKLSSVTAADTAVYYCAKHYYYGGSYAMDYWGQGTLVTVSSHHHHHHHH
notes: also called CAR5 scFv; humanized scFv
B5: 99789 CAR9 Soluble scFv (scFv)
scFv: B4 scFv with S187N
notes: The clone number 99789 is printed for both CAR5 and CAR9; also called CAR9 scFv; humanized scFv
B6: 99790 CAR6 Soluble scFv (scFv)
scFv: B4 scFv with S187Q
notes: also called CAR6 scFv; humanized scFv
B7: 100796 CAR7 Soluble scFv (scFv)
scFv: QVQLQESGPGLVKPSETLSLTCTVSGVSLPDYGVSWIRQPPGKGLEWIGVIWGSETTYYSSSLKSRVTISKDNSKNQVSLKLSSVTAADTAVYYCAKHYYYGGSYAMDYWGQGTLVTVSSGGGGSGGGGSGGGGSGGGGSEIVMTQSPATLSLSPGERATLSCRASQDISKYLNWYQQKPGQAPRLLIYHTSRLHSGIPARFSGSGSGTDYTLTISSLQPEDFAVYFCQQGNTLPYTFGQGTKLEIKHHHHHHHH
notes: also called CAR7 scFv; humanized scFv
B8: 100796 CAR10 Soluble scFv (scFv)
scFv: B7 scFv with S60N
notes: The clone number 100796 is printed for both CAR7 and CAR10; also called CAR10 scFv; humanized scFv
B9: 100798 CAR8 Soluble scFv (scFv)
scFv: B7 scFv with S60Q
notes: also called CAR8 scFv; humanized scFv
B10: 103101 CAR1 Soluble scFv (scFv)
scFv: EIVMTQSPATLSLSPGERATLSCRASQDISKYLNWYQQKPGQAPRLLIYHTSRLHSGIPARFSGSGSGTDYTLTISSLQPEDFAVYFCQQGNTLPYTFGQGTKLEIKGGGGSGGGGSGGGGSQVQLQESGPGLVKPSETLSLTCTVSGVSLPDYGVSWIRQPPGKGLEWIGVIWGSETTYYSSSLKSRVTISKDNSKNQVSLKLSSVTAADTAVYYCAKHYYYGGSYAMDYWGQGTLVTVSSHHHHHHHH
notes: It is built here as scFv domain plus His tag; also called CAR1 scFv; humanized scFv
B11: 103102 CAR2 Soluble scFv (scFv)
scFv: B10 scFv with S182Q
notes: also called CAR2 scFv; humanized scFv
B12: 103101 CAR11 Soluble scFv (scFv)
scFv: B10 scFv with S182N
notes: The clone number 103101 is printed for both CAR1 and CAR11; also called CAR11 scFv; 103101-WT (S/N)

The binders below were run against T1, human CD19 (full length, expressed on …) (assay: flow cytometry; His-tagged soluble scFv on mouse cell line 300 expressing hCD19).
Protocol: Mouse cell line 300.CD19 were grown in RPMI 1640 with 0.5 mg/ml Zeocin. Around 5e5 cells/per well were transferred to the BD Falcon 96 well plate. The cells were spin down at 900 rpm (Sorval Legend XT centrifuge) for 3 minutes. The supernatant were removed. Anti-CD19 scFv protein samples were diluted in DPBS with 5% FBS. The samples were added into the wells, mixed well with the cells and incubated for 1 hour. The cells were washed twice in the DPBS with 5% FBS. The cells were incubated with antipoly His PE (R&D) for 1 hour, washed twice before FACS analysis (LSRII from BD Biosciences).

Row | binding result | Binder
1 | binds | B1
2 | binds | B2
3 | binds | B3
4 | binds | B4
5 | binds | B5
6 | binds | B6
7 | binds | B7
8 | binds | B8
9 | binds | B9
10 | binds | B10
11 | binds | B11
12 | binds | B12

Source: patent US20190388471A1 (published 2019)
